# Assay results as given in patent publication US20230235004A1 (published 2023).
# Substitutions are numbered along the chain they refer to.
# T1: mouse MAdCAM expressed on cells (mouse, UniProt Q61826 22-405)
# T1 construct: whole, on cells
# T1 sequence (looked up): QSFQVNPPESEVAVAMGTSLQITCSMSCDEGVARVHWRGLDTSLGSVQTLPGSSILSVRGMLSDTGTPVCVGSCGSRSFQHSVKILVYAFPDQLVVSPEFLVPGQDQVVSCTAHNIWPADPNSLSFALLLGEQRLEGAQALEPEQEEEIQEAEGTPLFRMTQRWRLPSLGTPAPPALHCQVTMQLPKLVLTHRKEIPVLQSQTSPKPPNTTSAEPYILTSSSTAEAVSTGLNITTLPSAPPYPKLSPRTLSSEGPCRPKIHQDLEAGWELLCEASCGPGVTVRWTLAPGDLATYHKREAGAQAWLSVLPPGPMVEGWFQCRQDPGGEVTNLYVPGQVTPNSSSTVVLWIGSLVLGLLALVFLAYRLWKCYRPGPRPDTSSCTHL
# T2: human MAdCAM expressed on cells (human, UniProt Q13477 19-382)
# T2 construct: whole, on cells
# T2 sequence (looked up): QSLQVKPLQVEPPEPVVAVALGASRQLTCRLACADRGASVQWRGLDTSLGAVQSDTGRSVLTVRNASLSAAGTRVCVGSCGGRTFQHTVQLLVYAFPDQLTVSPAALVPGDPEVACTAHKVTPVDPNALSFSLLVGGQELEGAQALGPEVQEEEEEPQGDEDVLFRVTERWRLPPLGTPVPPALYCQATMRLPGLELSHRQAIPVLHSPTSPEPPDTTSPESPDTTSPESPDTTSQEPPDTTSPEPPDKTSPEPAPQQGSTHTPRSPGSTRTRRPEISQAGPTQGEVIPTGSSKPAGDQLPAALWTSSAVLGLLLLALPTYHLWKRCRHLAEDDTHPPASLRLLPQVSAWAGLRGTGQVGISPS
# B1: MAdCAM Antibody Table 2 clone 45 (antibody, V domains shown)
# VH: EVQLVESGGGLVKPGGSLRLSCAASGFTFGDYAMSWVRQAPGKGLEWVSYISGDIGYTNYAAPVKGRFTISRDDSKNTLYLQMNSLKTEDTAVYYCARDVAATGNWYFDLWGRGTLVTVSS
# VL: not shown
# notes: IgG format
# B2: MAdCAM Antibody Table 2 clone 21 (antibody, V domains shown)
# VH: EVQLVESGGGLVKPGGSLRLSCAASGFTFSSYWMSWVRQAPGKGLEWVSYISGDSGYTNYAAPVKGRFTISRDDSKNTLYLQMNSLKTEDTAVYYCARANSSGWYDWYFDLWGRGTLVTVSS
# VL: not shown
# notes: IgG format
# B3: MAdCAM Antibody Table 2 clone 13 (antibody, V domains shown)
# VH: QVQLVQSGAEVKKPGASVKVSCKASGYTFTTYYMHWVRQAPGQGLEWMGGFDPEDGETIYAQKFQGRVTMTRDTSTSTVYMELSSLRSEDTAVYYCARHAVAGAVGAGYYYYGMDVWGQGTMVTVSS
# VL: DIQMTQSPSSLSASVGDRVTITCRASESISNWLAWYQQKPGKAPKLLIYAASTLQSGVPSRFSGSGSGTDFTLTISSLQPEDFATYYCQQSYSVPFTFGPGTKVDIK
# notes: IgG format
# B4: MAdCAM Antibody Table 2 clone 19 (antibody, V domains shown)
# VH: EVQLLESGGGLVQPGGSLRLSCAASGFTFEDYAMHWVRQAPGKGLEWVSYLNSDGGSTSYADSVKGRFTISRDNSKNTLYLQMNSLRAEDTAVYYCAKDYCTNGVCAFDYWGQGTLVTVSS
# VL: DIQMTQSPSSLSASVGDRVTITCRASQSISTYLNWYQQKPGKAPKLLIYDASNLETGVPSRFSGSGSGTDFTLTISSLQPEDFATYYCQQSYTIPITFGQGTRLEIK
# notes: IgG format
# B5: MAdCAM Antibody Table 2 clone 34 (antibody, V domains shown)
# VH: QVQLVQSGAEVKKPGASVKVSCKASGYTFTGYYIHWVRQAPGQGLEWMGWMNPNSGNTGYAQKFQGRVTMTRDTSTSTVYMELSSLRSEDTAVYYCARDPGFLGYCSGGSCYDGWFDPWGQGTLVTVSS
# VL: B4 VL with T31S, N34H, D50A, N53S, E55Q, T56S, I94A, I96Y, R103K
# notes: IgG format
# B6: MAdCAM Antibody Table 2 clone 35 (antibody, V domains shown)
# VH: B5 VH with C106S, C111S
# VL: B4 VL with T31S, N34H, D50A, N53S, E55Q, T56S, I94A, I96Y, R103K
# notes: IgG format
# B7: MAdCAM Antibody Table 2 clone 9 (antibody, V domains shown)
# VH: QVQLVQSGAEVKKPGASVKVSCKASGYTFTSYYMHWVRQAPGQGLEWMGIINHSGGSTSYAQKFQGRVTMTRDTSTSTVYMELSSLRSEDTAVYYCARPYSGWYFAFDIWGQGTLVTVSS
# VL: not shown
# notes: IgG format
# B8: MAdCAM Antibody Table 2 clone 10 (antibody, V domains shown)
# VH: EVQLLESGGGLVQPGGSLRLSCAASGFMFGDYAMHWVRQAPGKGLEWVSAISGSGGSTYYADSVKGRFTISRDNSKNTLYLQMNSLRAEDTAVYYCAKDLVVAGIWYFDLWGRGTLVTVSS
# VL: DIQMTQSPSSLSASVGDRVTITCRASQGISNNLNWYQQKPGKAPKLLIYDASSLESGVPSRFSGSGSGTDFTLTISSLQPEDFATYYCQQTHSFPSTFGQGTKLEIK
# notes: IgG format
# B9: MAdCAM Antibody Table 2 clone 52 (antibody, V domains shown)
# VH: EVQLLESGGGLVQPGGSLRLSCAASGFTFDDYGMSWVRQAPGKGLEWVSYISSSSSYIYYADSVKGRFTISRDNSKNTLYLQMNSLRAEDTAVYYCAREIAAAGFYGMDVWGQGTTVTVSS
# VL: not shown
# notes: IgG format
# B10: MAdCAM Antibody Table 2 clone 1 (antibody, V domains shown)
# VH: EVQLLESGGGLVQPGGSLRLSCAASGFTFSSYGMHWVRQAPGKGLEWVAVISDDGSDKYYADSVKGRFTISRDNSKNTLYLQMNSLRAEDTAVYYCTTSKYYYYYGMDVWGQGTTVTVSS
# VL: DIQMTQSPSSLSASVGDRVTITCQASQDISKSLNWYQQKPGKAPKLLIYAASSLQSGVPSRFSGSGSGTDFTLTISSLQPEDFATYYCQQGYSTPLTFGGGTKVEIK
# notes: IgG format
# B11: MAdCAM Antibody Table 2 clone 16 (antibody, V domains shown)
# VH: EVQLLESGGGLVQPGGSLRLSCAASGFTFDDYAMHWVRQAPGKGLEWVSYIDASGTTIYYADSVKGRFTISRDNSKNTLYLQMNSLRAEDTAVYYCAKDQAAAGYWYFDLWGRGTLVTVSS
# VL: B4 VL with R24Q, S28D, T31N, D50K, N53T, T56S, T93S, I94T
# notes: IgG format
# B12: MAdCAM Antibody Table 2 clone 40 (antibody, V domains shown)
# VH: QVQLVQSGAEVKKPGASVKVSCKASGYTLTTWYMYWVRQAPGQGLEWMGWINPNRGATNYAQKFQGRVTMTRDTSTSTVYMELSSLRSEDTAVYYCAKGDLWGAMDVWGQGTLVTVSS
# VL: B10 VL with Q24R, Q27D, D28N, S30G, K31S, S32W, N34A, L96P, G100Q
# notes: IgG format
# B13: MAdCAM Antibody Table 2 clone 25 (antibody, V domains shown)
# VH: EVQLLESGGGLVQPGGSLRLSCAASGFTFSNAWMSWVRQAPGKGLEWVSTIVGNGGATYYADSVKGRFTISRDNSKNTLYLQMNSLRAEDTAVYYCARDNPLRWQGMDVWGQGTLVTVSS
# VL: B3 VL with E27Q, S28D, W32Y, A34N, T53S, V94I, F96P
# notes: IgG format
# B14: MAdCAM Antibody Table 2 clone 37 (antibody, V domains shown)
# VH: EVQLLESGGGLVQPGGSLRLSCAASGFTFSDYGMPWVRQAPGKGLEWVSAISGSGGSTYYADSVKGRFTISRDNSKNTLYLQMNSLRAEDTAVYYCARDGGWQPAAILDYWGQGTLVTVSS
# VL: B8 VL with S53N, S56T, T91S, H92Y, F94T, S96L, L104V
# notes: IgG format
# B15: MAdCAM Antibody Table 2 clone 32 (antibody, V domains shown)
# VH: B12 VH
# VL: B10 VL with Q24R, Q27D, D28N, S30G, K31S, S32W, N34A, L96P, G100Q
# notes: IgG format
# B16: MAdCAM Antibody Table 2 clone 12 (antibody, V domains shown)
# VH: B12 VH
# VL: B10 VL with Q24R, Q27D, D28N, S30G, K31S, S32W, N34A, L96P, G100Q
# notes: IgG format
# B17: MAdCAM Antibody Table 2 clone 33 (antibody, V domains shown)
# VH: B12 VH with L113T
# VL: B10 VL with Q24R, Q27D, D28N, S30G, K31S, S32W, N34A, L96P, G100Q
# notes: IgG format
# B18: MAdCAM Antibody Table 2 clone 59 (antibody, V domains shown)
# VH: B14 VH with T28S, P35H
# VL: B8 VL with S53N, S56T, T91S, H92Y, F94T, S96L, Q100G, L104V
# notes: IgG format
# B19: MAdCAM Antibody Table 2 clone 18 (antibody, V domains shown)
# VH: QVQLVQSGAEVKKPGSSVKVSCKASGYTFTNYYMHWVRQAPGQGLEWMGGIIPIVDRVKYAQKFQGRVTITADESTSTAYMELSSLRSEDTAVYYCAKGRYTVNYYYGMDVWGQGTTVTVSS
# VL: DIQMTQSPSSLSASVGDRVTITCQANQDISNYLNWYQQKPGKAPKLLIYRASKLEAGVPSRFSGSGSGTDFTLTISSLQPEDFATYYCQQSSEIPYSFGQGTKLEIK
# notes: IgG format
# B20: MAdCAM Antibody Table 2 clone 15 (antibody, V domains shown)
# VH: QVQLVQSGAEVKKPGASVKVSCKASGYTFTGYYMHWVRQAPGQGLEWMGWIGPNSGDTNYAQKFQGRVTMTRDTSTSTVYMELSSLRSEDTAVYYCARDLDHNWYFDLWGRGTLVTVSS
# VL: DIVMTQSPLSLPVTPGEPASISCRSSQSLLHSNGYNYLDWYLQKPGQSPQLLIYSSSNRAPGVPDRFSGSGSGTDFTLKISRVEAEDVGVYYCMQALHIPLTFGGGTKVEIK
# notes: IgG format
# B21: MAdCAM Antibody Table 2 clone 26 (antibody, V domains shown)
# VH: EVQLLESGGGLVQPGGSLRLSCAASGFTFSSYAMSWVRQAPGKGLEWVSYISSSSTYTNYADSVKGRFTISRDNSKNTLYLQMNSLRAEDTAVYYCARANSSSWYDWYFDLWGQGTLVTVSS
# VL: not shown
# notes: IgG format
# B22: MAdCAM Antibody Table 2 clone 27 (antibody, V domains shown)
# VH: B21 VH with A33Q
# VL: not shown
# notes: IgG format
# Molecular target: T1, mouse MAdCAM expressed on cells
# Test: cell binding
row,binding result,Binder
1,no binding,B1
2,no binding,B2
3,no binding,B3
4,no binding,B4
5,no binding,B5
6,no binding,B6
7,no binding,B7
8,binds,B8
9,no binding,B9
10,binds,B10
11,no binding,B11
12,no binding,B12
13,no binding,B13
14,no binding,B14
15,no binding,B15
16,no binding,B16
17,no binding,B17
18,no binding,B18
19,no binding,B19
20,no binding,B20
21,no binding,B21
22,no binding,B22

# Molecular target: T2, human MAdCAM expressed on cells
# Test: cell binding
row,binding result,Binder
1,binds,B2
2,binds,B3
3,binds,B4
4,binds,B5
5,binds,B8
6,binds,B10
7,binds,B11
8,binds,B13
9,binds,B14
10,binds,B16
11,binds,B18
12,binds,B19
13,binds,B20
14,binds,B21
15,binds,B22
